Patent US20140087995A1 (published 2014)
Numbered stars: 1 amine (or outer) side, 2 acyl side, 3 side chain; on linkers, the order of the positions; unused ones are H or OH. Bridge positions count the residues as written; N and C are the ends. Side chains are listed from the residue outwards. Ends that are not written are not given here. * marks the point of attachment. C20 diacid = O=C(O)CCCCCCCCCCCCCCCCCCC(=O)*; γGlu = O=C(O)[C@H](CCC(=O)[*:2])N[*:1]; AEEA = NCCOCCOCC(=O)O

T1: human calcitonin receptor (human, UniProt P30988 25-474)
T1 construct: whole, on cells; also called hCTR; hCT
T1 sequence (looked up): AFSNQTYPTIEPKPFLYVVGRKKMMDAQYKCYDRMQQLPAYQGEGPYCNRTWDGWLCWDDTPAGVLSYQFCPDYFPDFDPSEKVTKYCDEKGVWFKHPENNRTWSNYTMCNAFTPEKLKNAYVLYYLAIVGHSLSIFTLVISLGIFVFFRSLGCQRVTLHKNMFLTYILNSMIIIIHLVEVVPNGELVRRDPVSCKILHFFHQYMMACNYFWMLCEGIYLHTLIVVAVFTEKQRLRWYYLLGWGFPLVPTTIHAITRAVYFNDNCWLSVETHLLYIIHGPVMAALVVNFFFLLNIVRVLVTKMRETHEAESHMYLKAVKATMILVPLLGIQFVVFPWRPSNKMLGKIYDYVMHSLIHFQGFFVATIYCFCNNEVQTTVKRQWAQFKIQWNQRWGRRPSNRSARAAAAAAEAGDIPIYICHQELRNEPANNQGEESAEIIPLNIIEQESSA

B1: N^ε1-[2-[2-[2-[[(4S)-4-carboxy-4-(19-carboxynonadecanoylamino)butanoyl]amino]ethoxy]ethoxy]acetyl]-[Arg17,Pro21,Pro27]-h-amylin (peptide)
peptide: K([AEEA-γGlu-C20 diacid])CNTATCATQRLANFLRHSSPNFGAIPSSTNVGSNTY-NH2
modifications: disulfide 2-7; N-terminus assumed
SMILES: CC[C@H](C)[C@H](NC(=O)[C@H](C)NC(=O)CNC(=O)[C@H](Cc1ccccc1)NC(=O)[C@H](CC(N)=O)NC(=O)[C@@H]1CCCN1C(=O)[C@H](CO)NC(=O)[C@H](CO)NC(=O)[C@H](Cc1c[nH]cn1)NC(=O)[C@H](CCCNC(=N)N)NC(=O)[C@H](CC(C)C)NC(=O)[C@H](Cc1ccccc1)NC(=O)[C@H](CC(N)=O)NC(=O)[C@H](C)NC(=O)[C@H](CC(C)C)NC(=O)[C@H](CCCNC(=N)N)NC(=O)[C@H](CCC(N)=O)NC(=O)[C@@H](NC(=O)[C@H](C)NC(=O)[C@@H]1CSSC[C@H](NC(=O)[C@@H](N)CCCCNC(=O)COCCOCCNC(=O)CC[C@H](NC(=O)CCCCCCCCCCCCCCCCCCC(=O)O)C(=O)O)C(=O)N[C@@H](CC(N)=O)C(=O)N[C@@H]([C@@H](C)O)C(=O)N[C@@H](C)C(=O)N[C@@H]([C@@H](C)O)C(=O)N1)[C@@H](C)O)C(=O)N1CCC[C@H]1C(=O)N[C@@H](CO)C(=O)N[C@@H](CO)C(=O)N[C@H](C(=O)N[C@@H](CC(N)=O)C(=O)N[C@H](C(=O)NCC(=O)N[C@@H](CO)C(=O)N[C@@H](CC(N)=O)C(=O)N[C@H](C(=O)N[C@@H](Cc1ccc(O)cc1)C(N)=O)[C@@H](C)O)C(C)C)[C@@H](C)O
notes: also called compound 41
B2: N^ε1-[2-[2-[2-(19-carboxynonadecanoylamino)ethoxy]ethoxy]acetyl]-[Arg17,Pro21,Pro27]-h-amylin (peptide)
peptide: K([AEEA-C20 diacid])CNTATCATQRLANFLRHSSPNFGAIPSSTNVGSNTY-NH2
modifications: disulfide 2-7; N-terminus assumed
SMILES: CC[C@H](C)[C@H](NC(=O)[C@H](C)NC(=O)CNC(=O)[C@H](Cc1ccccc1)NC(=O)[C@H](CC(N)=O)NC(=O)[C@@H]1CCCN1C(=O)[C@H](CO)NC(=O)[C@H](CO)NC(=O)[C@H](Cc1c[nH]cn1)NC(=O)[C@H](CCCNC(=N)N)NC(=O)[C@H](CC(C)C)NC(=O)[C@H](Cc1ccccc1)NC(=O)[C@H](CC(N)=O)NC(=O)[C@H](C)NC(=O)[C@H](CC(C)C)NC(=O)[C@H](CCCNC(=N)N)NC(=O)[C@H](CCC(N)=O)NC(=O)[C@@H](NC(=O)[C@H](C)NC(=O)[C@@H]1CSSC[C@H](NC(=O)[C@@H](N)CCCCNC(=O)COCCOCCNC(=O)CCCCCCCCCCCCCCCCCCC(=O)O)C(=O)N[C@@H](CC(N)=O)C(=O)N[C@@H]([C@@H](C)O)C(=O)N[C@@H](C)C(=O)N[C@@H]([C@@H](C)O)C(=O)N1)[C@@H](C)O)C(=O)N1CCC[C@H]1C(=O)N[C@@H](CO)C(=O)N[C@@H](CO)C(=O)N[C@H](C(=O)N[C@@H](CC(N)=O)C(=O)N[C@H](C(=O)NCC(=O)N[C@@H](CO)C(=O)N[C@@H](CC(N)=O)C(=O)N[C@H](C(=O)N[C@@H](Cc1ccc(O)cc1)C(N)=O)[C@@H](C)O)C(C)C)[C@@H](C)O
notes: also called compound 43
B3: N^-1-[(4S)-4-carboxy-4-(19-carboxynonadecanoylamino)butanoyl]-Gly[Arg1,Arg17,Pro21,Pro27,His35]-h-amylin (peptide)
peptide: {C20 diacid-γGlu}-GRCNTATCATQRLANFLRHSSPNFGAIPSSTNVGSHTY-NH2
modifications: disulfide 3-8
SMILES: CC[C@H](C)[C@H](NC(=O)[C@H](C)NC(=O)CNC(=O)[C@H](Cc1ccccc1)NC(=O)[C@H](CC(N)=O)NC(=O)[C@@H]1CCCN1C(=O)[C@H](CO)NC(=O)[C@H](CO)NC(=O)[C@H](Cc1c[nH]cn1)NC(=O)[C@H](CCCNC(=N)N)NC(=O)[C@H](CC(C)C)NC(=O)[C@H](Cc1ccccc1)NC(=O)[C@H](CC(N)=O)NC(=O)[C@H](C)NC(=O)[C@H](CC(C)C)NC(=O)[C@H](CCCNC(=N)N)NC(=O)[C@H](CCC(N)=O)NC(=O)[C@@H](NC(=O)[C@H](C)NC(=O)[C@@H]1CSSC[C@H](NC(=O)[C@H](CCCNC(=N)N)NC(=O)CNC(=O)CC[C@H](NC(=O)CCCCCCCCCCCCCCCCCCC(=O)O)C(=O)O)C(=O)N[C@@H](CC(N)=O)C(=O)N[C@@H]([C@@H](C)O)C(=O)N[C@@H](C)C(=O)N[C@@H]([C@@H](C)O)C(=O)N1)[C@@H](C)O)C(=O)N1CCC[C@H]1C(=O)N[C@@H](CO)C(=O)N[C@@H](CO)C(=O)N[C@H](C(=O)N[C@@H](CC(N)=O)C(=O)N[C@H](C(=O)NCC(=O)N[C@@H](CO)C(=O)N[C@@H](Cc1c[nH]cn1)C(=O)N[C@H](C(=O)N[C@@H](Cc1ccc(O)cc1)C(N)=O)[C@@H](C)O)C(C)C)[C@@H](C)O
notes: also called compound 47
B4: N^-1-[(4S)-4-carboxy-4-(19-carboxynonadecanoylamino)butanoyl]-Gly[Arg1,Arg17,Pro21,Pro27]-h-amylin (peptide)
peptide: {C20 diacid-γGlu}-GRCNTATCATQRLANFLRHSSPNFGAIPSSTNVGSNTY-NH2
modifications: disulfide 3-8
SMILES: CC[C@H](C)[C@H](NC(=O)[C@H](C)NC(=O)CNC(=O)[C@H](Cc1ccccc1)NC(=O)[C@H](CC(N)=O)NC(=O)[C@@H]1CCCN1C(=O)[C@H](CO)NC(=O)[C@H](CO)NC(=O)[C@H](Cc1c[nH]cn1)NC(=O)[C@H](CCCNC(=N)N)NC(=O)[C@H](CC(C)C)NC(=O)[C@H](Cc1ccccc1)NC(=O)[C@H](CC(N)=O)NC(=O)[C@H](C)NC(=O)[C@H](CC(C)C)NC(=O)[C@H](CCCNC(=N)N)NC(=O)[C@H](CCC(N)=O)NC(=O)[C@@H](NC(=O)[C@H](C)NC(=O)[C@@H]1CSSC[C@H](NC(=O)[C@H](CCCNC(=N)N)NC(=O)CNC(=O)CC[C@H](NC(=O)CCCCCCCCCCCCCCCCCCC(=O)O)C(=O)O)C(=O)N[C@@H](CC(N)=O)C(=O)N[C@@H]([C@@H](C)O)C(=O)N[C@@H](C)C(=O)N[C@@H]([C@@H](C)O)C(=O)N1)[C@@H](C)O)C(=O)N1CCC[C@H]1C(=O)N[C@@H](CO)C(=O)N[C@@H](CO)C(=O)N[C@H](C(=O)N[C@@H](CC(N)=O)C(=O)N[C@H](C(=O)NCC(=O)N[C@@H](CO)C(=O)N[C@@H](CC(N)=O)C(=O)N[C@H](C(=O)N[C@@H](Cc1ccc(O)cc1)C(N)=O)[C@@H](C)O)C(C)C)[C@@H](C)O
notes: also called compound 46
B5: N^ε-[2-[2-[2-[[(4S)-4-carboxy-4-(19-carboxynonadecanoylamino)butanoyl]amino]ethoxy]ethoxy]acetyl]Lys[Arg1,Arg17,Pro21,Pro27,His35]-h-amylin (peptide)
peptide: K([AEEA-γGlu-C20 diacid])RCNTATCATQRLANFLRHSSPNFGAIPSSTNVGSHTY-NH2
modifications: disulfide 3-8; N-terminus assumed
SMILES: CC[C@H](C)[C@H](NC(=O)[C@H](C)NC(=O)CNC(=O)[C@H](Cc1ccccc1)NC(=O)[C@H](CC(N)=O)NC(=O)[C@@H]1CCCN1C(=O)[C@H](CO)NC(=O)[C@H](CO)NC(=O)[C@H](Cc1c[nH]cn1)NC(=O)[C@H](CCCNC(=N)N)NC(=O)[C@H](CC(C)C)NC(=O)[C@H](Cc1ccccc1)NC(=O)[C@H](CC(N)=O)NC(=O)[C@H](C)NC(=O)[C@H](CC(C)C)NC(=O)[C@H](CCCNC(=N)N)NC(=O)[C@H](CCC(N)=O)NC(=O)[C@@H](NC(=O)[C@H](C)NC(=O)[C@@H]1CSSC[C@H](NC(=O)[C@H](CCCNC(=N)N)NC(=O)[C@@H](N)CCCCNC(=O)COCCOCCNC(=O)CC[C@H](NC(=O)CCCCCCCCCCCCCCCCCCC(=O)O)C(=O)O)C(=O)N[C@@H](CC(N)=O)C(=O)N[C@@H]([C@@H](C)O)C(=O)N[C@@H](C)C(=O)N[C@@H]([C@@H](C)O)C(=O)N1)[C@@H](C)O)C(=O)N1CCC[C@H]1C(=O)N[C@@H](CO)C(=O)N[C@@H](CO)C(=O)N[C@H](C(=O)N[C@@H](CC(N)=O)C(=O)N[C@H](C(=O)NCC(=O)N[C@@H](CO)C(=O)N[C@@H](Cc1c[nH]cn1)C(=O)N[C@H](C(=O)N[C@@H](Cc1ccc(O)cc1)C(N)=O)[C@@H](C)O)C(C)C)[C@@H](C)O
notes: also called compound 45
B6: N^ε1-[(4S)-4-carboxy-4-(19-carboxynonadecanoylamino)butanoyl]-[Arg17,Pro21,Pro27]-h-amylin (peptide)
peptide: K([γGlu-C20 diacid])CNTATCATQRLANFLRHSSPNFGAIPSSTNVGSNTY-NH2
modifications: disulfide 2-7; N-terminus assumed
SMILES: CC[C@H](C)[C@H](NC(=O)[C@H](C)NC(=O)CNC(=O)[C@H](Cc1ccccc1)NC(=O)[C@H](CC(N)=O)NC(=O)[C@@H]1CCCN1C(=O)[C@H](CO)NC(=O)[C@H](CO)NC(=O)[C@H](Cc1c[nH]cn1)NC(=O)[C@H](CCCNC(=N)N)NC(=O)[C@H](CC(C)C)NC(=O)[C@H](Cc1ccccc1)NC(=O)[C@H](CC(N)=O)NC(=O)[C@H](C)NC(=O)[C@H](CC(C)C)NC(=O)[C@H](CCCNC(=N)N)NC(=O)[C@H](CCC(N)=O)NC(=O)[C@@H](NC(=O)[C@H](C)NC(=O)[C@@H]1CSSC[C@H](NC(=O)[C@@H](N)CCCCNC(=O)CC[C@H](NC(=O)CCCCCCCCCCCCCCCCCCC(=O)O)C(=O)O)C(=O)N[C@@H](CC(N)=O)C(=O)N[C@@H]([C@@H](C)O)C(=O)N[C@@H](C)C(=O)N[C@@H]([C@@H](C)O)C(=O)N1)[C@@H](C)O)C(=O)N1CCC[C@H]1C(=O)N[C@@H](CO)C(=O)N[C@@H](CO)C(=O)N[C@H](C(=O)N[C@@H](CC(N)=O)C(=O)N[C@H](C(=O)NCC(=O)N[C@@H](CO)C(=O)N[C@@H](CC(N)=O)C(=O)N[C@H](C(=O)N[C@@H](Cc1ccc(O)cc1)C(N)=O)[C@@H](C)O)C(C)C)[C@@H](C)O
notes: also called compound 48

molecular target: T1, human calcitonin receptor; assay: SPA competition with 125I-calcitonin, membranes of BHK hCTR cells (Assay VII)
Outline: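 BHK hCTR membranes 35 ng/μL + SPA beads 0.05 mg/well; buffer 50 mM Hepes pH 7.4, 1 mM CaCl2, 5 mM MgCl₂, 0.1% OA, 0.02% Tween20. 120 min, 25° C., shaking. Scintillation count; IC50 by one-site binding competition.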

Row | Binder | IC50
1 | B1 | 21.3 nM
2 | B2 | 2.64 nM
3 | B3 | 15.5 nM
4 | B4 | 9.53 nM
5 | B5 | 14.8 nM
6 | B6 | 30.9 nM
